# According to patent publication US20260028400A1 (AIMED BIO, published 2026):
# Numbering of substitutions follows the chain as printed.
# B1: P015044-vc-PAB-MMAE (antibody, IgG1, V domains shown)
# VH: EVQLLESGGGLVQPGGSLRLSCAASGFTFSNYAMHWVRQAPGKGLEWVSIIYPDDDTRYNPSFRGRFTISRDNSKNTLYLQMNSLRAEDTAVYYCARDLLYAGDYWGQGTLVTVSS
# VL: QSVLTQPPSASGTPGQRVTISCGGNNIESKAVHWYQQLPGTAPKLLIYANNKRPSGVPDRFSGSKSGTSASLAISGLRSEDEADYYCQSYDSNKVVFGGGTKLTVL
# modifications: maleimidocaproyl-valine-citrulline-p-aminobenzyloxycarbonyl monomethyl auristatin E on cysteine sulfhydryls of reduced disulfides; positions not given; average 3.0 drugs per antibody
# B2: P015042v1-6 (antibody, V domains shown)
# VH: EVQLLESGGGLVQPGGSLRLSCAASGFTFSDYAMSWVRQAPGKGLEWVSVISSDKGSIYYADSVKGRFTISRDNSKNTLYLQMNSLRAEDTAVYYCAKDRSRDMEVDFDYWGQGTLVTVSS
# VL: QSVLTQPPSASGTPGQRVTISCSGSSSNIGSNYVTWYQQLPGTAPKLLIYDKSQRPSGVPDRFSGSKSGTSASLAISGLRSEDEADYYCGTWDYSLNAYVFGGGTKLTVL
# notes: Variant of P015042v1, tested as IgG
# B3: P015012 (antibody, V domains shown)
# VH: EVQLLESGGGLVQPGGSLRLSCAASGFTFSGYSMSWVRQAPGKGLEWVSGISYGGSSISYADSVKGRFTISRDNSKNTLYLQMNSLRAEDTAVYYCAKPVRRWARFRLSYDDAMDVWGQGTLVTVSS
# VL: B2 VL with S31N, Y33A, T35N, D51A, K52N, Q54H, Y94S, N97S, A98G
# B4: P015002 (antibody, V domains shown)
# VH: EVQLLESGGGLVQPGGSLRLSCAASGFTFSDYSMSWVRQAPGKGLEWVSGISHNGGSTYYADSVKGRFTISRDNSKNTLYLQMSSLRAEDTAVYYCARDVSRWSKTRWSYDNAMDVWGQGTLVTVSS
# VL: B2 VL with S23T, T35S, Q38R, D51S, K52D, Q54N, G90A, Y94A, N97S
# B5: P015043 (antibody, V domains shown)
# VH: EVQLLESGGGLVQPGGSLRLSCAASGFTFSNYDMSWVRQAPGKGLEWVSWISPGGSSIYYADSVKGRFTISRDNSKNTLYLQMNSLRAEDTAVYYCAKTLTRFDYWGQGTLVTVSS
# VL: B2 VL with S23T, S31N, Y33N, T35S, D51Y, K52D, Q54H, Y94S, N97S, A98G
# B6: P015005 (antibody, V domains shown)
# VH: B4 VH
# VL: B2 VL with T35N, D51S, K52D, Q54H, T91S, Y94S, F101L
# B7: P015018 (antibody, V domains shown)
# VH: EVQLLESGGGLVQPDGSMRLICAASGFTFSSYAKHWVRQAPGKGLEWVSEIYTSGSTNYNPSLKSRFTISRDNSKNTLYLQMNSLRAEDTAVYYCARDTWWEGYFDLWGQGTLVTVSS
# VL: EIVLTQSPGTLSLSPGERATLSCRASQSVSTYLAWYQQKPGQAPRLLIYDASSLESGIPDRFSGSGSGTDFTLTISRLEPEDFAVYYCQQSYNLPHTFGQGTKVEIK
# B8: P015001 (antibody, V domains shown)
# VH: EVQLLESGGGLAQPGGSLRLSCAASGFTFSNYDMSWVRQAPGKGPEWVSGIYSGNSNTYYADSVKGRFTISRDNSKNTLYLQMNSLRAEDTAVYYCARDLQYTEWAGFDYWGQGTLVTVSS
# VL: B2 VL with Y33D, K52D, Q54K, G90A, T91A, Y94D, N97S, A98G
# B9: P015042v1-4 (antibody, V domains shown)
# VH: B2 VH with K55G
# VL: B2 VL with A98G
# notes: Variant of P015042v1, tested as IgG; also called LC S51 substituted with K
# B10: P015042v1-5 (antibody, V domains shown)
# VH: B2 VH with K55G
# VL: B2 VL with K52S
# notes: Variant of P015042v1, tested as IgG; also called LC G95 substituted with A
# Biological target: T1, ROR1 expressed on cell surface (Jeko-1 cell line, AMB-LC-0003T and AMB-LC-0002T patient-derived lung cancer … (human, UniProt Q01973 30-937))
# Experiment: cell-based or functional assay
# T1 sequence (Q01973 30-937): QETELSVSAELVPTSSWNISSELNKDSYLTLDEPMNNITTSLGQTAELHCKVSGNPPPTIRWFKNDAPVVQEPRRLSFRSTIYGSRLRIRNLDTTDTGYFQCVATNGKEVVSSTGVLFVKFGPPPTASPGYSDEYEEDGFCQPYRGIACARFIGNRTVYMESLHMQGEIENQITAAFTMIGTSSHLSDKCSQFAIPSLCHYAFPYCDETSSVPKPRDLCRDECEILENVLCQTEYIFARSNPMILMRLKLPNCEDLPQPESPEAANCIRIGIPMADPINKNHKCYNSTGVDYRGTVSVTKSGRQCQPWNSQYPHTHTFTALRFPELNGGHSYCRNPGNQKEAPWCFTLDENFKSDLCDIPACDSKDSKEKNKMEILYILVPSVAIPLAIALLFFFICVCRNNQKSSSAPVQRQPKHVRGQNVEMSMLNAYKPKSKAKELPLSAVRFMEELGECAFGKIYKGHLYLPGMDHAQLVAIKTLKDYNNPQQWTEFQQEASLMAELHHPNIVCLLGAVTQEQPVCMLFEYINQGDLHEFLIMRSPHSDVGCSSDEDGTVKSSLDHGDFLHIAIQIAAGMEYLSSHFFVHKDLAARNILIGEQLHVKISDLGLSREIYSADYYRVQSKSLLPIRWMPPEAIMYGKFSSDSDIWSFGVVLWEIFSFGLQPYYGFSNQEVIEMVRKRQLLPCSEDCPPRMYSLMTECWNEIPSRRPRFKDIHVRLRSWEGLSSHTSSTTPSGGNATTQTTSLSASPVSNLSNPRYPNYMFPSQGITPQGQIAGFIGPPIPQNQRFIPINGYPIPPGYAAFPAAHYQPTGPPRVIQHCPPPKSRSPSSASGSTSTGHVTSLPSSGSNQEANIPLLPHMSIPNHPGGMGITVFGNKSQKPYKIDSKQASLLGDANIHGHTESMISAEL
Binder,"Fold Change of IC50, AMB-LC-0002T/AMB-LC-0003T","IC50 (nM), spheroid volume after 6 days of treatment, AMB-LC-0003T (high ROR1 expression)","IC50 (nM), spheroid volume, AMB-LC-0002T (very low ROR1 expression)"
B1,22.7 fold,5.38 nM,122 nM

# Biological target: T1, ROR1 expressed on cell surface (Jeko-1 …)
# Experiment: cell-based or functional assay
# Remark: another data set of the same source
Binder,"Fold Change of IC50, AMB-LC-0002T/AMB-LC-0003T","IC50 (nM), spheroid volume, AMB-LC-0002T (low ROR1 expression)","IC50 (nM), spheroid volume, AMB-LC-0003T (high ROR1 expression)"
B1,39.7 fold,261 nM,6.59 nM

# Biological target: T1, ROR1 expressed on cell surface (Jeko-1 …)
# Experiment: flow cytometry on Jeko-1 cells
# Experimental: Before therapeutic use of anti-ROR1 antibodies, it is very important to determine whether the antibody binds to the antigen expressed on the cell surface. The cell binding ability of anti-ROR1 antibodies developed by the present inventors was measured using FACS in Jeko-1 cell line and AMB-LC-0003T patient-derived cells, which were confirmed to have high ROR1 expression. Each cell type was dispensed at 1×10⁵ cells/100 μl FACS buffer per well in a 96-well plate.
# Cell binding ability analysis was performed using anti-ROR1 candidate antibodies P015004, P015042, P015043, P015044, P015042v1 with improved biological and physical properties, and P015042v1-6, one of modified materials thereof. Each antibody was serially diluted 10-fold from 100 nM to 10 nM, 1 nM, 100 pM, 10 pM, and 1 pM and the cells were treated therewith. After reaction at 4° C. for 30 minutes, washing was performed twice. PE-labeled goat anti-human IgG Fc PE (ThermoFisher; 12-4998-82) as a secondary antibody was diluted at a ratio of 1:100 in FACS buffer, and 100 μl thereof was dispensed per well. Reaction again at 4° C. for 30 minutes and washing twice were performed. Finally, 100 μl of FACS buffer was dispensed per well, followed by mixing well with a pipette and then flow cytometry using a NovoCyte flow cytometer (Agilent). Analysis was performed using GraphPad Prism 9.3.1, and EC₅₀ values were obtained using a log (agonist) vs. response-Variable slope nonlinear graph model.
row,Binder,EC50
1,B2,11 pM

# Biological target: T2, Ig-like (human, UniProt Q01973)
# T2 construct: Ig-like domain, His tag; also called Ig-like domain; human ROR1-immunoglobulin domain
# Experiment: ELISA, IgG on coated domain, OD450
# Experimental: (§1) ELISA was performed to analyze the binding domain using the IgG antibody of the selected clone.
# (§2) After washing with PBST and distilled water, binding at room temperature for 1 hour using a goat-derived HRP-conjugated anti-human antibody (Invitrogen, 31482, Goat anti-Human IgG F(ab′)₂ Secondary Antibody, HRP) and then washing again using PBST and distilled water were performed. After color development by adding TMB substrate solution (Thermo Scientific, 34029, 1-Step™ Ultra TMB-ELISA Substrate Solution), the color reaction was stopped with stop solution (Invitrogen, SS04, ELISA Stop Solution), and the absorbance was measured at OD 450 nm. The anti-ROR1 antibody clone binding to each domain was analyzed through ELISA (FIG. 3).
# T2 sequence (Q01973 39-151 limits assumed): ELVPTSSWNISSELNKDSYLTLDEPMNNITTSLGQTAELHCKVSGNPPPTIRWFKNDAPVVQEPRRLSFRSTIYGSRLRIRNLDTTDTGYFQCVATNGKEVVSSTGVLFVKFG
row,Binder,binding result
1,B3,no binding (tested: 300 nM)
2,B4,no binding (tested: 300 nM)
3,B5,no binding (tested: 300 nM)
4,B6,no binding (tested: 300 nM)
5,B7,no binding (tested: 300 nM)

# Biological target: T3, FZD (human, UniProt Q01973)
# T3 construct: frizzled domain, His tag; also called Frizzled domain; human ROR1-frizzled domain
# Experiment: ELISA, IgG on coated domain, OD450
# Experimental: as §1, §2
# T3 sequence (Q01973 165-305 limits assumed): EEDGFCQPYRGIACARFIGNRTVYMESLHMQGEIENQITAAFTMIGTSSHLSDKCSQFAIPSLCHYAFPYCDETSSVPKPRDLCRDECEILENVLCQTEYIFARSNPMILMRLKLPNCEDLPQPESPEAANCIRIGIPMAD
row,Binder,binding result
1,B8,no binding (tested: 300 nM)
2,B7,no binding (tested: 300 nM)

# Biological target: T4, Ig+FZD (human)
# T4 construct: Ig-like plus frizzled domains, His tag; also called IF domain; human ROR1-immunoglobulin-frizzled domain
# Experiment: ELISA, IgG on coated domain, OD450
# Experimental: as §1, §2
# T4 sequence (Q01973 30-305): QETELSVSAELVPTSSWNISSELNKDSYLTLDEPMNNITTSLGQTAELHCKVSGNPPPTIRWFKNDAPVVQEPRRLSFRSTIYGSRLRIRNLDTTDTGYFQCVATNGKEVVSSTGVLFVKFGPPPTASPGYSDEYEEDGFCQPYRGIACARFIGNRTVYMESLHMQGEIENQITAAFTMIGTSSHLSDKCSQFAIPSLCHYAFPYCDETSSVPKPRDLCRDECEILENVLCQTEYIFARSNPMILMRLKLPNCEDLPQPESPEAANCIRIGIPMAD
row,Binder,EC50 (read off the curve)
1,B3,~2000 pM
2,B7,~10000 pM

# Biological target: T5, FZD+KRD (human, UniProt Q01973)
# T5 construct: frizzled plus kringle domains, His tag; also called FK domain; human ROR1-frizzled-kringle domain
# Experiment: ELISA, IgG on coated domain, OD450
# Experimental: as §1, §2
# T5 sequence (Q01973 165-395 limits assumed): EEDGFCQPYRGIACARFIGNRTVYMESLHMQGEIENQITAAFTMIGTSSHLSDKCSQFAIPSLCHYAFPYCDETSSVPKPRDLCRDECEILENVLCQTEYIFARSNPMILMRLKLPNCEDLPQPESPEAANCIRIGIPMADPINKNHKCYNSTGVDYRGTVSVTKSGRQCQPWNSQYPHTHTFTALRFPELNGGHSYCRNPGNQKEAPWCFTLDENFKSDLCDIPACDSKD
Binder,binding result,EC50 (read off the curve)
B8,no binding (tested: 300 nM),–
B6,–,~6000 pM
B7,no binding (tested: 300 nM),–

# Biological target: T6, human ROR1 (human, UniProt Q01973 30-403, limits assumed)
# T6 construct: also called human ROR1 protein
# Experiment: ELISA, IgG on coated human ROR1, OD450
# Experimental: (§3) A 96-well plate was coated at 4° C. for 16 hours with each of human ROR1 and mouse ROR1 proteins at a concentration of 2 μg/ml and then blocked using […]. […] After washing with PBST and distilled water, binding at room temperature for 1 hour using a goat-derived HRP-conjugated anti-human antibody (Invitrogen, 31482, Goat anti-Human IgG F(ab′)₂ Secondary Antibody, HRP) and then washing again using PBST and distilled water were performed. After color development by adding TMB substrate solution (Thermo Scientific, 34029, 1-Step™ Ultra TMB-ELISA Substrate Solution), the color reaction was stopped with stop solution (Invitrogen, SS04, ELISA Stop Solution), and the absorbance was measured at OD 450 nm. It was confirmed that the anti-ROR1 antibody of the present invention and the modified antibody thereof with improved biological and physical properties […] to human ROR1 and mouse ROR1 (FIG. 2).
# T6 sequence (Q01973 30-403 limits assumed): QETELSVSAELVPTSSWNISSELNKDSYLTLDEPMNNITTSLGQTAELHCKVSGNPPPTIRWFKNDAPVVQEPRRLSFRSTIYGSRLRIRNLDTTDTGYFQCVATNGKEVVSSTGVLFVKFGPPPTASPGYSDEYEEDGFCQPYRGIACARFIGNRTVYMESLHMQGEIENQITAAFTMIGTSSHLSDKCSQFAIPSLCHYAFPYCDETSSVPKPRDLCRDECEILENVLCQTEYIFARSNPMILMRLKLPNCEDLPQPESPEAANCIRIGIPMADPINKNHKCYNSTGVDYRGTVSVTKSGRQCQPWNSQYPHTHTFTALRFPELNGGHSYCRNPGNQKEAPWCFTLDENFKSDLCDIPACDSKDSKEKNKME
row,Binder,EC50 (read off the curve)
1,B9,~500 pM
2,B4,~2000 pM
3,B8,~1000 pM
4,B6,~1000 pM
5,B10,~500 pM
6,B2,~500 pM
7,B7,~1000 pM

# Biological target: T7, mouse ROR1 (mouse, UniProt Q9Z139 30-403, limits assumed)
# T7 construct: also called mouse ROR1 protein
# Experiment: ELISA, IgG on coated mouse ROR1, OD450
# Experimental: as §3
# T7 sequence (Q9Z139 30-403 limits assumed): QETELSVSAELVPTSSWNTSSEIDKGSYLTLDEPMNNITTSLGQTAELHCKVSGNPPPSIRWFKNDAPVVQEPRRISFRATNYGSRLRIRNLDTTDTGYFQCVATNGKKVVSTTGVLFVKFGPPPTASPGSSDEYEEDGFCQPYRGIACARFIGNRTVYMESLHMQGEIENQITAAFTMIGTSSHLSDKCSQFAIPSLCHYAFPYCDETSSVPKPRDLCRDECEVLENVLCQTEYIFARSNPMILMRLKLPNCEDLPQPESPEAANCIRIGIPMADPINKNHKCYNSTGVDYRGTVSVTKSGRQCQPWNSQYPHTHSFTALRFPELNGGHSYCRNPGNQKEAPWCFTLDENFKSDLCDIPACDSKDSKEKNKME
row,Binder,EC50 (read off the curve)
1,B9,~300 pM
2,B4,~3000 pM
3,B6,~1000 pM
4,B10,~300 pM
5,B2,~1000 pM

# Biological target: T6, human ROR1
# Experiment: SPR (Biacore 3000), human ROR1 on CM5 chip, IgG injected, 1:1 Langmuir
# Experimental: (§4) To more quantitatively analyze the binding ability of the anti-ROR1 antibody to ROR1, SPR (surface plasmon resonance) was performed. A Biacore 3000 device (GE Healthcare) was used. Using the amine coupling method, human ROR1 or mouse ROR1 was diluted with 10 mM sodium acetate, pH 4.5 and immobilized on a CM5 sensor chip (GE Healthcare) at 300 response units (RU). The activated portion remaining on the surface of the sensor chip was deactivated by adding 1 M ethanolamine-HCl (pH 8.5).
Binder,Kd,koff,kon
B9,21.3 pM,4.34e-05 s⁻¹,2.04e+06 M⁻¹ s⁻¹
B3,78.9 pM,0.000321 s⁻¹,4.07e+06 M⁻¹ s⁻¹
B4,3710 pM,0.000202 s⁻¹,54300 M⁻¹ s⁻¹
B8,630 pM,0.00264 s⁻¹,4.18e+06 M⁻¹ s⁻¹
B6,400 pM,6.78e-05 s⁻¹,169000 M⁻¹ s⁻¹
B10,7.48 pM,1.89e-05 s⁻¹,2.53e+06 M⁻¹ s⁻¹
B2,91.2 pM,0.000157 s⁻¹,1.72e+06 M⁻¹ s⁻¹
B7,845 pM,0.00249 s⁻¹,2.95e+06 M⁻¹ s⁻¹

# Biological target: T7, mouse ROR1
# Experiment: SPR (Biacore 3000), mouse ROR1 on CM5 chip, IgG injected, 1:1 Langmuir
# Experimental: as §4
Binder,Kd,koff,kon
B9,132 pM,0.000282 s⁻¹,2.14e+06 M⁻¹ s⁻¹
B3,285 pM,0.000356 s⁻¹,1.25e+06 M⁻¹ s⁻¹
B4,6000 pM,0.000278 s⁻¹,46400 M⁻¹ s⁻¹
B8,230000 pM,0.129 s⁻¹,564000 M⁻¹ s⁻¹
B6,833 pM,0.0001 s⁻¹,120000 M⁻¹ s⁻¹
B10,41.6 pM,0.000106 s⁻¹,2.54e+06 M⁻¹ s⁻¹
B2,802 pM,0.0015 s⁻¹,1.87e+06 M⁻¹ s⁻¹
B7,83200 pM,0.0782 s⁻¹,940000 M⁻¹ s⁻¹
